{
  "source": "paper PMC11601603",
  "molecular_target": "Citrobacter sp. RHBSTW-00271 Ubl3 (Citrobacter sp. RHBSTW-00271)",
  "test": "SEC-MALS",
  "data": [
    {"substance": "Citrobacter sp. RHBSTW-00271 Ubl3 (domain or fragment)", "values": [
      {"measurement": "stoichiometry N", "result": 2}
    ]}
  ]
}
